From patent publication US20030153066A1

Target: HIV-1 Gag Pr55 (wild-type) (HIV-1) (UniProt P03348)
Assay: cell-based or functional assay

Row | Substance | amount of 750S capsid in HP68-immunodepleted cell-free reactions after reconstitution [fold]
1 | HuHP68-GST fusion protein (from UniProt P61221 1-599) | 3
2 | WGHP68-GST fusion protein | 3
